Assay: soluble on expression in E. coli; label from the status in PepcDB or PDB records

Sequence | soluble on expression in E. coli
MGSDKIHHHHHHMIEFDNLTYLHGKPQGTGLLKANPEDFVVVEDLGFEPDGEGEHILVRILKNGCNTRFVADALAKFLKIHAREVSFAGQKDKHAVTEQWLCARVPGKEMPDLSAFQLEGCQVLEYARHKRKLRLGALKGNAFTLVLREVSNRDDVEQRLIDICVKGVPNYFGAQRFGIGGSNLQGAQRWAQTNTPVRDRNKRSFWLSAARSALFNQIVAERLKKADVNQVVDGDALQLAGRGSWFVATTEELAELQRRVNDKELMITAALPGSGEWGTQREALAFEQAAVAAETELQALLVREKVEAARRAMLLYPQQLSWNWWDDVTVEIRFWLPAGSFATSVVRELINTTGDYAHIAE | not soluble
MSLAAFQIANKTVGKDAPVFIIAEAGINHDGKLDQAFALIDAAAEAGADAVKFQMFQADRMYQKDPGLYKTAAGKDVSIFSLVQSMEMPAEWILPLLDYCREKQVIFLSTVCDEGSADLLQSTSPSAFKIASYEINHLPLLKYVARLNRPMIFSTAGAEISDVHEAWRTIRAEGNNQIAIMHCVAKYPAPPEYSNLSVIPMLAAAFPEAVIGFSDHSEHPTEAPCAAVRLGAKLIEKHFTIDKNLPGADHSFALNPDELKEMVDGIRKTEAELKQGITKPVSEKLLGSSYKTTTAIEGEIRNFAYRGIFTTAPIQKGEAFSEDNIAVLRPGQKPQGLHPRFFELLTSGVRAVRDIPADTGIVWDDILLKDSPFHEEGGSHHHHHH | soluble
MKQINDVSFLLDKRLVVLIEHQSTINENLPYRLLEYITRIYEKIVDKEKKYQKNLVKIPKPEFIVLYNGADPYPDYTELKLSDAFMDIEGLKLTGIDKIPLELIVPVYNINQGHNPEILKKCESLYGYSFFISKIREYQTQGLTLEELITPVIEYCIKNNILKDYLEAHASEVINMIFGEYDREMDIAVNRREAREEGREEGFKEGKLIIAKNLLSEGSTPEFVQRITGLTLDEIEEIGL | not soluble
MGSDKIHHHHHHMKKLIAGVLVLTILGSCGNKKTNIDPFASITQEVDSIRHKADSIHQEELPEEPKPTEADESFDDFIYNFASDDALQRQRVKFPLPYYKGDEKTNIEERNWKHDDLFTKQHYYTLLFDKEEDMDLVGDTSLTSVQVEWIFVKTRMVKKYYFERIKGAWILEAINLRPVERNENEDFVEFFSHFAADSLFQSRRVQEPLAFVTSDPDDDFSILETSLDLNQWFAFKPALPTDRLSNINYGQRNDDNSPTKILALKGIGNGFSNILYFRRKAGEWQLYKFEDTSI | not soluble
MGSDKIHHHHHHMELRHLRHFIVLARLKSFSKAANELHLAQPSLSRSIQKMEERLGASLLARDEKHFALTEYGRLVLAQGELIVSQLEYLESEIKTKQGLEKAKLVIGASPIPSNSIIGPAVGRFIRDNPDISLELKVESWSRLYKLLLKGELDMFIAETNATLLDQRDNVITQCLPQSQAIFCCRPHHPLTRLKTVYLPSLRDYPVGMPSAMPQLLRQRFEDLFEEDRHDFVGLVKYAQFQPIKSAIKECDMVVITPDISVREELASGELVALDVVGVPNIKASFSVVSMKNRRLSHSAEQFVDSLLTHSSAKAVGF | not soluble
MSLKSILIMGGSDFIGSALAKRLIKCGYQIDILTNGKKEIDYNGFKEHLICDRKVRKDMENIITGRKYDYIYDMTAYTKEDVSNLIDFISMDNLKKYIVLSAGAVYKDSGRNIKEENEKGENENWGKYGLNKKEAEDFIINSPIPYIIIRPTYIYGENNNLYREYYFFEKIEKNEKIPVPKGKQVSNQFIYIGDLVKVLESIMKNPHVREAYNVTNPQLISWDDLIYTCGEIIGKEPIIKYVDMEKVEFRERTYFPFRNIDFNLDINKLIEHGLYIPNVLLKEGLTATYKWFSANKPKMHDRKMNKVESVMQIEGHHHHHH | soluble
MAHHHHHHMRGVSAAEIGKFRELQNHWWNPDGPLRTLHFFNPLRVKYINDTCRNFSKRSSLLASSGITPGMRILDVGCGGGILSESLVRLGGNVLGIDMCEESIAVAQQRREQVLQDVASCTLQNGAASLEYRYASLNTIAVEEKQQFDLVVASEVIEHVDDAPRFLQDLCDATKPGGLLIISTMDKSIRAAISHIAVAEYLTALVRPGTHDWSKFVPPKDLSRCALQHQVRQVDLQYIVACPNILMSLSTRQMQLAFSLSKRFDTGHYFWSGLKVTAPA | not soluble
METQEKKFVPASKQIPTVNSGWLDRELGEAMSEAVRACLAHGKQSEITVKLKIQPQNIQSGTVKISHDVATKLPKEKREGGIVFATPDGNIQADDPAQGKLKLKQVSNTSSTLKMVRSN | not soluble
ARRLYVGNIPFGITEEAMMDFFNAQMRLGGLTQAPGNPVLAVQINQDKNFAFLEFRSVDETTQAMAFDGIIFQGQSLKIRRPHDYQPLPG | soluble
MPEVHATALIPMLTGTNVPESEEEIDAPIYDQREVEKIRGIAHNIAENAKNPEKLMPDFMAANPGIMSTMESLKLSDFGKTSTVVPSISTSPGPIFTLANGIPAVGTPGTQSSTTVKA | soluble
SNAMTKIYFAGPLFSQADLRYNAYLVEQIRQLDKTIDLYLPQENAAINDKSAYADSKMIALADTENVLASDLLVALLDGPTIDAGVASEIGVAYAKGIPVVALYTDSRQQGADNHQKLDALNEIAENQFHYLNLYTVGLIKLNGRVVSSEEDLLEEIKQRLS | soluble
MAPENHDGEKHFAEIVKDFGETSMNDNGLDTGEQAKAFAWGKVRDALSQQVNQHVESWLSPWGNASVDVKVDNEGHFTGSRGSWFVPLQDNDRYLTWSQLGLTQQDNGLVSNVGVGQRWARGNWLVGYNTFYDNLQDENLQRAGFGAEAWGEYLRLSANFYQPFAAWHEQTATQEQRMARGYDLTARMRMPFYQHLNTSVSLEQYFGDRVDLFNSGTGYHNPVALSLGLNYTPVPLVTVTAQHKQGESGENQNNLGLNLNYRFGVPLKKQLSAGEVAESQSLRGSRYDNPQRNNLPTLEYRQRKTLTVFLATPPWDLKPGETVPLKLQIRSRYGIRQLIWQGDTQILSLTPGAQANSAEGWTLIMPDWQNGEGASNHWRLSVVVEDNQGQRVSSNEITLTLVEPFDALSNDELRWEP | not soluble
MGSDKIHHHHHHMTHEEHHAAKTLGIGKAIAVLTSGGDAQGMNAAVRAVVRVGIFTGARVFFVHEGYQGLVDGGDHIKEATWESVSMMLQLGGTVIGSARCKDFREREGRLRAAYNLVKRGITNLCVIGGDGSLTGADTFRSEWSDLLSDLQKAGKITDEEATKSSYLNIVGLVGSIDNDFCGTDMTIGTDSALHRIMEIVDAITTTAQSHQRTFVLEVMGRHCGYLALVTSLSCGADWVFIPECPPDDDWEEHLCRRLSETRTRGSRLNIIIVAEGAIDKNGKPITSEDIKNLVVKRLGYDTRVTVLGHVQRGGTPSAFDRILGSRMGVEAVMALLEGTPDTPACVVSLSGNQAVRLPLMECVQVTKDVTKAMDEKKFDEALKLRGRSFMNNWEVYKLLAHVRPPVSKSGSHTVAVMNVGAPAAGMNAAVRSTVRIGLIQGNRVLVVHDGFEGLAKGQIEEAGWSYVGGWTGQGGSKLGTKRTLPKKSFEQISANITKFNIQGLVIIGGFEAYTGGLELMEGRKQFDELCIPFVVIPATVSNNVPGSDFSVGADTALNTICTTCDRIKQSAAGTKRRVFIIETMGGYCGYLATMAGLAAGADAAYIFEEPFTIRDLQANVEHLVQKMKTTVKRGLVLRNEKCNENYTTDFIFNLYSEEGKGIFDSRKNVLGHMQQGGSPTPFDRNFATKMGAKAMNWMSGKIKESYRNGRIFANTPDSGCVLGMRKRALVFQPVAELKDQTDFEHRIPKEQWWLKLRPILKILAKYEIDLDTSDHAHLEHITRKRSGEAAV | not soluble
LAMVDNLQGDSGRGYYLEMLIGTPPQKLQILVDTGSSNFAVAGTPHSYIDTYFDTERSSTYRSKGFDVTVKYTQGSWTGFVGEDLVTIPKGFNTSFLVNIATIFESENFFLPGIKWNGILGLAYATLAKPSSSLETFFDSLVTQANIPNVFSMQMCGAGLPVAGSGTNGGSLVLGGIEPSLYKGDIWYTPIKEEWYYQIEILKLEIGGQSLNLDCREYNADKAIVDSGTTLLRLPQKVFDAVVEAVARASLIPEFSDGFWTGSQLACWTNSETPWSYFPKISIYLRDENSSRSFRITILPQLYIQPMMGAGLNYECYRFGISPSTNALVIGATVMEGFYVIFDRAQKRVGFAASPCAEIAGAAVSEISGPFSTEDVASNCVPA | soluble
MSLKKIDGHAHIVDTIAGFNGKGRLNALGNGYAIWDDGDLIKLIPDEYGDKAFTAEAFLKYMDANGVDKAVILQGHLNGYQNYYTHLAIKRYPERFTGAFSVDPFADNAMQIVKRHVEVLGFRAIKFEISQGGGIHGYRGQKTPFRLDTDPHVSRILTYLLDYPGFVVTVDYGNWDQISHQPDAIANLARLYTSLDFVVCHLSFPHVEHSNRLRAELNMWKNFNNIYTDISAIQDIDAPDSFPFPKSEQNVRIAKEVLGAKRIIWGTDSPWSATFNTYEELATWLENVDIFSQEELEDVMYNNAERVYFKEEHVKANRAGIDDTTKELNLYEGHHHHHH | soluble
GSHMLGERLGIPAPRRIEAFDNSNIYGADPVSALVVFLDGKPAKKEYRKYKVKTVAGPNDYETMREVVRRRYTRVLKEGLPLPDLIIIDGGKGHLSAVRDVLENELGLDVPLAGLAKDEKHRTSELLAGDPPDVVPLDRQSQEFYLLQRIQDEVHRFAVMFHRKTRQKTMFHSVLDDIPGVGEKRKKALLNYFGSVKKMKEATVEELQRANIPRAVAEKIYEKLHE | soluble
MMKKLFLDTHSASGEIKLTDGLLYWFPQFLTPIQADQAFQQMLTHLDWQQKSIRLFGKSVLQPRLIAWYGEKGYRYSGLSLSAQPFPPPLLTLKTQCEQAAQAPFNSVLANLYRDGQDSMGWHQDNEPELGSNPVIASLSLGESRRFLLRHHKDHALQVECELNHGDLLIMAGNTQHFWQHAIPKTRQTKQTRINLTFRNILLEHHHHHH | soluble
MGSDKIHHHHHHMRLYTRTGDKGKTSVIGGRLAKDDTRVVAYGTTDELNSFVGSAITQLDENTFADIRGELFKIQHELFDCGGDLAMLKVKEDRPYKAKQEIVDFLEQRIDAYIKEAPELERFILPGGSEAAASLHVCRTIARRAERYVVRLQQEGEINPIVLKYLNRLSDYFFAVARVVNSRLQVPDVEYERSAIVFREGKRKEDKK | soluble
MAHHHHHHMPPLHSRATRQLVKERSKIEGPRSLHRGIHYQENEAHASSYMQNAKKKRADHRDLLVHHQRINEDLQDIYTRTAALHSDNMTMEERIEESWKKYERIGGKRPANVRTHGQDAVLCANQTAVPYAERLAQVSQQKKELRERGAWERLTHGEAVDYSKGSALHAAKDKRVQMFQRRQLRRAHLLRRVGDPTPLKQSGTYDMNSGTLRVFNKTIRNVQREVAHDARIAEVRKRRKNSRSQWDLNESGNVNRPDQEILRYSRDWELGPQRKARGGGGGGGRGGRKRGRDEL | not soluble
MPISEDLKQAIRQRARYICEYCHSPERLSANRFTIDHVIPKSLGGSDAFNNLALACRRCNERRYNFVASIDPQTKTIVAIFNPRQQNWAEHFIWTNRGIIIQGTTTTGRATCIRLDLNDTRYPEEDSIQETRRFWLKTGLHPPIDDPCKNLEHHHHHH | soluble
MAHHHHHHMTHMGRAADGYQRLGNNYPQVTPSSHFAAASPDPVLATPIQTRPLQGNPFHPLLWNGSATSSTGAAGVQASLSRKSRTRLTSGVTAGSSSGPLSSTLSLSTPLSSCASAAASGEGRFQRRVSRDRFGACSTPTSSSTTAQVLQLQRPAQSPMPPLSSSPPASVGLTAAAARGAVTPANLGRERKVAAVNYNALFQQELQQQQRQGSDTGAWPTPSPSPPSGALQYAQLPPSASADVHGTGAHSGSGEGVSEALSSSVTASSVQAGTAEGPLPPDVRRIIAQSCTSSSSSSGADTNAIIDAAEQQARRLISTGRRVKVYREELTTAEEERNDLSAAVEERRLVRSVLQSEVDDINARIQALLQERALAEAQLHAQDDAAAREARKLTEAQDRVTVLRKTIEGIVEETSAARLMLRQIVPSLHIENYY | not soluble
